Results as given in US20160145657A1, “Methods and Materials for Producing 7-Carbon Chemicals via a C9 Route” (INVISTA North America S.á.r.l., priority 2014, published 2016).

B1: SEQ ID NO 12: Vibrio fluvialis ω-transaminase, Genbank Accession No. AEA39183.1 (protein)
chain: MNKPQSWEARAETYSLYGFTDMPSLHQRGTVVVTHGEGPYIVDVNGRRYLDANSGLWNMVAGFDHKGLIDAAKAQYERFPGYHAFFGRMSDQTVMLSEKLVEVSPFDSGRVFYTNSGSEANDTMVKMLWFLHAAEGKPQKRKILTRWNAYHGVTAVSASMTGKPYNSVFGLPLPGFVHLTCPHYWRYGEEGETEEQFVARLARELEETIQREGADTIAGFFAEPVMGAGGVIPPAKGYFQAILPILRKYDIPVISDEVICGFGRTGNTWGCVTYDFTPDAIISSKNLTAGFFPMGAVILGPELSKRLETAIEAIEEFPHGFTASGHPVGCAIALKAIDVVMNEGLAENVRRLAPRFEERLKHIAERPNIGEYRGIGFMWALEAVKDKASKTPFDGNLSVSERIANTCTDLGLICRPLGQSVVLCPPFILTEAQMDEMFDKLEKALDKVFAEVA
B2: SEQ ID NO 9: Pseudomonas syringae ω-transaminase, Genbank Accession No. AAY39893.1 (protein)
chain: MSANNPQTLEWQALSSEHHLAPFSDYKQLKEKGPRIITRAEGVYLWDSEGNKILDGMSGLWCVAIGYGREELADAASKQMRELPYYNLFFQTAHPPVLELAKAISDIAPEGMNHVFFTGSGSEGNDTMLRMVRHYWALKGQPNKKTIISRVNGYHGSTVAGASLGGMTYMHEQGDLPIPGVVHIPQPYWFGEGGDMTPDEFGIWAAEQLEKKILELGVENVGAFIAEPIQGAGGVIVPPDSYWPKIKEILSRYDILFAADEVICGFGRTSEWFGSDFYGLRPDMMTIAKGLTSGYVPMGGLIVRDEIVAVLNEGGDFNHGFTYSGHPVAAAVALENIRILREEKIVERVRSETAPYLQKRLRELSDHPLVGEVRGVGLLGAIELVKDKTTRERYTDKGAGMICRTFCFDNGLIMRAVGDTMIIAPPLVISFAQIDELVEKARTCLDLTLAVLQG

Tests used:
Assay type in all cases: biochemical
[1] = ω-transaminase activity, reverse direction (7-aminoheptanoate to pimelate semialdehyde), L-alanine formation by RP-HPLC; conditions: cell free extract, 10 mM 7-aminoheptanoate, 10 mM pyruvate, pH 7.5, 25° C., 4 h; FIG. 13
Description: (§1) A nucleotide sequence encoding an N-terminal His-tag was added to the nucleic acid sequences from Chromobacterium violaceum, Pseudomonas syringae, Rhodobacter sphaeroides, and Vibrio fluvialis encoding the ω-transaminases of SEQ ID NOs: 7, 9, 10 and 12, respectively (see FIG. 6) such that N-terminal HIS tagged ω-transaminases could be produced. Each of the resulting modified genes was cloned into a pET21a expression vector under control of the T7 promoter and each expression vector was transformed into a BL21[DE3] E. coli host. The resulting recombinant E. coli strains were cultivated at 37° C. in a 250 mL shake flask culture containing 50 mL LB media and antibiotic selection pressure, with shaking at 230 rpm. Each culture was induced overnight at 16° C. using 1 mM IPTG.
(§2) The pellet from each induced shake flask culture was harvested via centrifugation. Each pellet was resuspended and lysed via sonication. The cell debris was separated from the supernatant via centrifugation and the cell free extract was used immediately in enzyme activity assays.
Enzyme activity assays in the reverse direction (i.e., 7-aminoheptanoate to pimelate semialdehyde) were performed in a buffer composed of a final concentration of 50 mM HEPES buffer (pH=7.5), 10 mM 7-aminoheptanoate, 10 mM pyruvate and 100 μM pyridoxyl 5′ phosphate. Each enzyme activity assay reaction was initiated by adding cell free extract of the ω-transaminase gene product or the empty vector control to the assay buffer containing the 7-aminoheptanoate and incubated at 25° C. for 4 h, with shaking at 250 rpm. The formation of L-alanine from pyruvate was quantified via RP-HPLC.

[2] = ω-transaminase activity, forward direction (pimelate semialdehyde to 7-aminoheptanoate), pyruvate formation by RP-HPLC; conditions: for acceptance of pimelate semialdehyde as substrate (conversion of L-alanine to pyruvate) against the empty vector control: cell free extract, 10 mM pimelate semialdehyde, 10 mM L-alanine, pH 7.5, 25° C., 4 h, FIG. 14; for reversibility of ω-transaminase activity: pimelate semialdehyde accepted, 7-aminoheptanoate synthesized: conclusion from reverse and forward assays of Example 1
Description: as §1, §2
Enzyme activity in the forward direction (i.e., pimelate semialdehyde to 7-aminoheptanoate) was confirmed for the transaminases of SEQ ID NO 9, SEQ ID NO 10 and SEQ ID NO 12. Enzyme activity assays were performed in a buffer composed of a final concentration of 50 mM HEPES buffer (pH=7.5), 10 mM pimelate semialdehyde, 10 mM L-alanine and 100 μM pyridoxyl 5′ phosphate. Each enzyme activity assay reaction was initiated by adding a cell free extract of the ω-transaminase gene product or the empty vector control to the assay buffer containing the pimelate semialdehyde and incubated at 25° C. for 4 h, with shaking at 250 rpm. The formation of pyruvate was quantified via RP-HPLC.

[3] = ω-transaminase activity, 7-aminoheptanol to 7-oxoheptanol, L-alanine formation by RP-HPLC; conditions: for acceptance of 7-aminoheptanol as substrate (conversion of pyruvate to L-alanine) against the empty vector control: cell free extract, 10 mM 7-aminoheptanol, 10 mM pyruvate, pH 7.5, 25° C., 4 h, FIG. 17; for acceptance of 7-oxoheptanol as substrate forming 7-aminoheptanol, concluded from reversibility: inferred from reverse direction assay and Example 1
Description: A nucleotide sequence encoding an N-terminal His-tag was added to the Chromobacterium violaceum, Pseudomonas syringae and Rhodobacter sphaeroides nucleic acids encoding the ω-transaminases of SEQ ID NOs: 7, 9 and 10, respectively (see FIG. 6) such that N-terminal HIS tagged ω-transaminases could be produced. The modified genes were cloned into a pET21a expression vector under the T7 promoter. Each expression vector was transformed into a BL21[DE3] E. coli host. Each resulting recombinant E. coli strain were cultivated at 37° C. in a 250 mL shake flask culture containing 50 mL LB media and antibiotic selection pressure, with shaking at 230 rpm. Each culture was induced overnight at 16° C. using 1 mM IPTG.
as §2
Enzyme activity assays in the reverse direction (i.e., 7-aminoheptanol to 7-oxoheptanol) were performed in a buffer composed of a final concentration of 50 mM HEPES buffer (pH=7.5), 10 mM 7-aminoheptanol, 10 mM pyruvate, and 100 μM pyridoxyl 5′ phosphate. Each enzyme activity assay reaction was initiated by adding cell free extract of the ω-transaminase gene product or the empty vector control to the assay buffer containing the 7-aminoheptanol and then incubated at 25° C. for 4 h, with shaking at 250 rpm. The formation of L-alanine was quantified via RP-HPLC.

Molecule	acceptance of 7-aminoheptanoate as substrate (conversion of pyruvate to L-alanine) against the empty vector control [1]	acceptance of pimelate semialdehyde as substrate (conversion of L-alanine to pyruvate) against the empty vector control [2]	reversibility of ω-transaminase activity: pimelate semialdehyde accepted, 7-aminoheptanoate synthesized [2]	acceptance of 7-aminoheptanol as substrate (conversion of pyruvate to L-alanine) against the empty vector control [3]	acceptance of 7-oxoheptanol as substrate forming 7-aminoheptanol, concluded from reversibility [3]
SEQ ID NO 10: Rhodobacter sphaeroides ω-transaminase, Genbank Accession No. ABA81135.1	accepted 7-aminoheptanote as substrate	accepted pimelate semialdehyde as substrate	accepted pimelate semialdehyde as substrate and synthesized 7-aminoheptanoate as a reaction product	accepted 7-aminoheptanol as substrate	accept 7-oxoheptanol as substrate and form 7-aminoheptanol
B1	accepted 7-aminoheptanote as substrate	accepted pimelate semialdehyde as substrate	accepted pimelate semialdehyde as substrate and synthesized 7-aminoheptanoate as a reaction product	–	–
B2	accepted 7-aminoheptanote as substrate	accepted pimelate semialdehyde as substrate	accepted pimelate semialdehyde as substrate and synthesized 7-aminoheptanoate as a reaction product	accepted 7-aminoheptanol as substrate	accept 7-oxoheptanol as substrate and form 7-aminoheptanol
